Source: patent publication US20100260668A1 (published 2010)
Values joined by “and” are separate entries in the source; they are usually repeats but may differ in a detail not shown here. Equal entries are not always repeated. Values belong to the binder of their own block, whether it stands above or below them.

What was measured:
[1] = target: T1, DLL4 (human, UniProt Q9NR61 27-685); test: flow cytometry on 293G-human DLL4 cells; DLL4 VD N-terminal
T1 construct: whole, on cells; also called human DLL4

[2] = target: T2, EGFR on A431 cells (human, UniProt P00533 25-1210); test: cell-based or functional assay
[3] = target: T3, ErbB3 on A431 cells (human, UniProt P21860 20-1342); test: cell-based or functional assay
[4] = target: T2, EGFR on A431 cells; test: cell-based or functional assay; remark: listed apart in the source
[5] = target: T3, ErbB3 on A431 cells; test: cell-based or functional assay; remark: listed apart in the source
[6] = target: T4, HGF (HGF-His tag) (UniProt P14210 32-728); test: Direct Bind ELISA, antigen on plate
T4 construct: Bought reagent
T4 sequence (P14210 32-728 limits assumed): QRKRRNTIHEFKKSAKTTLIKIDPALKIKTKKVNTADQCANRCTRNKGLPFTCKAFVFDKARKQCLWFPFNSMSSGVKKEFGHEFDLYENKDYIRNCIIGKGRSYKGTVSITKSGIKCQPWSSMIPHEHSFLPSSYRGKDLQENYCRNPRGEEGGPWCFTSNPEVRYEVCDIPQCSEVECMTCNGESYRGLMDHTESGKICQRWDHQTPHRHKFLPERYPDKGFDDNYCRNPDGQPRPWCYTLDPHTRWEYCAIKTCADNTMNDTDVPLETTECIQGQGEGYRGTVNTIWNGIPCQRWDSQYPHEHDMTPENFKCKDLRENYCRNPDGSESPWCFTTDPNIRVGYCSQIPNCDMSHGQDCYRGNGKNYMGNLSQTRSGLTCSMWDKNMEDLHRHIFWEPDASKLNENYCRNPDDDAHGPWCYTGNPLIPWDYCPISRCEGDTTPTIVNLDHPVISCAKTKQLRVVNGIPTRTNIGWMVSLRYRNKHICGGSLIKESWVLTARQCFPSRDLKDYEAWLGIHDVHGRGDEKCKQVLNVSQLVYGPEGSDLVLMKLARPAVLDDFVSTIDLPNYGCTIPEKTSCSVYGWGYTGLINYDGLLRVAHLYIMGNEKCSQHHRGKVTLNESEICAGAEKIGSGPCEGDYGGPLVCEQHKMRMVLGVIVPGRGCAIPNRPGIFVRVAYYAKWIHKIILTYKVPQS

[7] = target: T5, VEGF (VEGF 1-165 aa, R&D Systems 293-VE-010) (UniProt P15692 27-191); test: Direct bind ELISA, VEGF coated on plate; VEGF domain N-term., HC long/LC long
T5 construct: bought reagent; also called vascular endothelial growth factor
T5 sequence (P15692 other isoform, or with tags, fused parts or gaps limits assumed): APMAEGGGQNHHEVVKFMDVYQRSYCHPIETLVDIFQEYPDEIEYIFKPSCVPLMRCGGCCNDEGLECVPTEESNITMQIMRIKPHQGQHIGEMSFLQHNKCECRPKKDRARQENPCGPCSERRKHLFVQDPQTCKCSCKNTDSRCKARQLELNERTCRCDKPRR

[8] = target: T6, VEGF (UniProt P15692 27-191, limits assumed); test: direct bind ELISA, antigen on plate; reference antibody
T6 construct: Bought antigen coated on the ELISA plate; also called vascular endothelial growth factor
T6 sequence (P15692 other isoform, or with tags, fused parts or gaps limits assumed): as above

[9] = target: T7, VEGF 1-165 aa (UniProt P15692 27-191); test: direct bind ELISA (ref Ab)
T7 construct: Bought antigen coated on the ELISA plate
T7 sequence (P15692 other isoform, or with tags, fused parts or gaps limits assumed): as above

[10] = target: T1, DLL4; test: flow cytometry on cells carrying the target, 2 ug/mL; C-terminal VD

B2: AB008 (anti-CD-22 antibody, used as control) (antibody, human IgG1, kappa, V domains shown)
VH: QVQLVQSGAEVKKPGSSVKVSCKASGYTFTSYWLHWVRQAPGQGLEWIGYINPRNDYTEYNQNFKDKATITADESTNTAYMELSSLRSEDTAFYFCARRDITTFYWGQGTTVTVSS
VL: DIQLTQSPSSLSASVGDRVTMSCKSSQSVLYSANHKNYLAWYQQKPGKAPKLLIYWASTRESGVPSRFSGSGSGTDFTFTISSLQPEDIATYYCHQYLSSWTFGGGTKLEIKR
Inhibition Of EGFR Phosphorylation (% Inhibition At 60 nM Ab/DVD) [2]: 4% | Inhibition Of ErbB3 Phosphorylation (% Inhibition At 60 nM Ab/DVD) [3]: 0% | Inhibition Of A431 Proliferation (% Inhibition At 21.6 nM Ab/DVD) [4]: 6% | Inhibition Of A431 Proliferation (% Inhibition At 21.6 nM Ab/DVD) [5]: 6%

B3: AB012 (anti-HGF (seq. 1) parent antibody) (antibody, IgG1, V domains shown)
VH: QVQLVESGGGLVKPGGSLRLSCAASGFTFSDYYMSWIRQAPGKGLEWVSYISSSGSTIYYADSVKGRFTISRDNAKNSLYLQMNSLRAEDTAVYYCARDEYNSGWYVLFDYWGQGTLVTVSS
VL: DIQMTQSPSSVSASVGDRVTITCRASQGISSWLAWYQQKPGKAPNLLIYEASSLQSGVPSRFGGSGSGTDFTLTISSLQPEDFATYYCQQANGFPWTFGQGTKVEIKR
notes: HC vector V1 (wild-type hIgG1 constant), LC vector V2 (kappa constant); also called AB012VH; AB012VL
EC50 [6]: 0.22 nM and 0.19 nM

B4: DVD498 (bispecific antibody, human IgG1, kappa)
heavy: not shown
light: DIQMTQSPSSLSASVGDRVTITCRASQVIRRSLAWYQQKPGKAPKLLIYAASNLASGVPSRFSGSGSGTDFTLTISSLQPEDFATYYCQQSNTSPLTFGQGTKVEIKRTVAAPSVFIFPPDIQMTQSSSYLSVSLGGRVTITCKASDHINNWLAWYQQKPGNAPRLLISGATSLETGVPSRFSGSGSGKDYTLSITSLQTEDVATYYCQQYWSIPLTFGAGTKLELKRTVAAPSVFIFPPSDEQLKSGTASVVCLLNNFYPREAKVQWKVDNALQSGNSQESVTEQDSKDSTYSLSSTLTLSKADYEKHKVYACEVTHQGLSSPVTKSFNRGEC
notes: DVD-Ig; N-term; AB071 (VEGF), C-term; AB072 (DLL4); HC linker long, LC linker long; also called DVD-Ig DVD498; DVD498H/DVD498L
EC50 [7]: 30.6 nM

Other lines, results leading:

EC50 [1]: 0.89 nM
B1: DVD485 (bispecific antibody, human IgG1, kappa)
heavy: not shown
light: DIQMTQSPSSLSASVGDRVTITCRASQDVSTAVAWYQQKPGKAPKLLIYSASFLYSGVPSRFSGSGSGTDFTLTISSLQPEDFATTYYCQQSYTGTVTFGQGTKVEIKRTVAAPSVFIFPPDIQMTQSPSSLSASVGDRVTITCRASQVIRRSLAWYQQKPGKAPKLLIYAASNLASGVPSRFSGSGSGTDFTLTISSLQPEDFATYYCQQSNTSPLTFGQGTKVEIKRTVAAPSVFIFPPSDEQLKSGTASVVCLLNNFYPREAKVQWKVDNALQSGNSQESVTEQDSKDSTYSLSSTLTLSKADYEKHKVYACEVTHQGLSSPVTKSFNRGEC
notes: DVD-Ig; outer AB015 (DLL4), inner AB071 (VEGF); also called DLL4 and VEGF DVD-Ig, HC linker short, LC linker long

EC50 [8]: 20.9 nM
B5: AB071 (antibody, human IgG1, kappa, L234A L235A, V domains shown)
VH: EVQLVESGGGLVQPGGSLRLSCAASGFTINASWIHWVRQAPGKGLEWVGAIYPYSGYTNYADSVKGRFTISADTSKNTAYLQMNSLRAEDTAVYYCARWGHSTSPWAMDYWGQGTLVTVSS
VL: DIQMTQSPSSLSASVGDRVTITCRASQVIRRSLAWYQQKPGKAPKLLIYAASNLASGVPSRFSGSGSGTDFTLTISSLQPEDFATYYCQQSNTSPLTFGQGTKVEIKR
notes: also called AB071VH; AB071VL

EC50 [9]: 40.4 nM and 80.4 nM and 79.5 nM
B6: AB071 (antibody, human IgG1, kappa, L234A L235A, V domains shown)
VH: B5 VH
VL: B5 VL
notes: Vectors V7/V2

FACS Geometric Mean C-terminal [10]: 5.57
B7: DVD258 (bispecific antibody, human IgG1, kappa)
heavy: not shown
light: DIVLTQSPDSLAVSLGERVTMNCKSSQSLLNSGMRKSFLAWYQQKPGQSPKLLIYWASTRESGVPDRFTGSGSGTDFTLTISSVQAEDVAVYYCKQSYHLFTFGSGTKLEIKRTVAAPDIQMTQSPSSLSASVGDRVTITCRASQDVSTAVAWYQQKPGKAPKLLIYSASFLYSGVPSRFSGSGSGTDFTLTISSLQPEDFATTYYCQQSYTGTVTFGQGTKVEIKRTVAAPSVFIFPPSDEQLKSGTASVVCLLNNFYPREAKVQWKVDNALQSGNSQESVTEQDSKDSTYSLSSTLTLSKADYEKHKVYACEVTHQGLSSPVTKSFNRGEC
notes: DVD-Ig; outer AB047 (PlGF), inner AB015 (DLL4); also called PlGF and DLL4 DVD-Ig
